{"source": "paper PMC6616044", "about": "“Identification and characterization of a new sulfoacetaldehyde reductase from the human gut bacterium Bifidobacterium kashiwanohense” (Bioscience Reports, 2019)", "molecules": {"B1": {"name": "BkTauF (Bifidobacterium catenulatum subsp. puerorum PV20-2) (protein)", "chain": "MLWDYAQPVTIRFGKGRAMEIKDIAEAMGLHDGIMVTPKFFVDSGEAQRLIDASDGAVSTVFTDFSPNPDVTEVDACAEIIRKNHCEFVVAMGGGSAMDVSKAAASICLTDDSIADYHGTGKAMPQKHLPIIALPTTAGTGSEVTCVSVLTNRKLGKKAPIVSDGFFPSVAIVDPELTYSVPPKITASTGMDVLSQAIEGFWSKGHQPICDSCAAHAAKLVFKYLPIAVAEPHNEEAREKMCEASVIAGLAFTLPKTTSSHACSFPLTNIHGIPHGEACGLTLDYFARINKDAQHGRVQEFARGIGFKDVDAMADAIHDLKVRIGMRTGLKDLNLTEEQIADLVRISRHPNLYNNPVEITDDMLDTMYHYLASTD", "notes": "codon-optimized gene; His6-MBP-TEV-GGG fusion in E. coli BL21(DE3), tag cut by TEV protease, GGG linker before N-terminus; 375 residues seen, 41 kDa monomer, dimer; Zn2+ enzyme"}}, "key": {"[1]": {"target": "Bifidobacterium kashiwanohense TauF (sulfoacetaldehyde reductase) (Bifidobacterium kashiwanohense)", "experiment": "SEC; Superdex200 gel filtration, 5 mg/ml BkTauF, 4 ml injected, buffer C (20 mM Tris pH 7.5, 200 mM KCl, 1 mM DTT), 2 ml/min; molecular weight from the elution volume against markers"}, "BkTauF": {"target": "T1, BkTauF (Bifidobacterium catenulatum, UniProt A0A0A7I0A5)", "T1 construct": "gene AH68_00250; codon-optimized gene; His6-MBP-TEV-GGG fusion in E. coli BL21(DE3), tag cut by TEV protease, GGG linker before N-terminus; 375 residues seen, 41 kDa monomer, dimer; Zn2+ enzyme", "experiment": "X-ray crystal structure, […] Å", "assay_type": "binding", "details": "binary complex; nucleotide site in cleft between N- and C-terminal domains"}, "[2]": {"substrate": "NC(=O)c1ccc[n+]([C@@H]2O[C@H](COP(=O)(O)OP(=O)(O)OC[C@H]3O[C@@H](n4cnc5c(N)ncnc54)[C@H](OP(=O)(O)O)[C@@H]3O)[C@@H](O)[C@H]2O)c1", "experiment": "spectrophotometric NADPH formation, A340", "assay_type": "biochemical, Bifidobacterium catenulatum", "details": "isethionate oxidation, 100 mM isethionate, 50 mM CAPSO pH 10.0, room temperature", "source_text": "spectrophotometric NADPH formation, A340 on BkTauF"}, "[3]": {"substrate": "NC(=O)C1=CN([C@@H]2O[C@H](COP(=O)(O)OP(=O)(O)OC[C@H]3O[C@@H](n4cnc5c(N)ncnc54)[C@H](OP(=O)(O)O)[C@@H]3O)[C@@H](O)[C@H]2O)C=CC1", "experiment": "spectrophotometric NADPH assay, A340", "assay_type": "biochemical, Bifidobacterium catenulatum", "details": "sulfoacetaldehyde reduction, 5 mM sulfoacetaldehyde, 50 mM Tris/HCl pH 7.5, room temperature", "source_text": "spectrophotometric NADPH assay, A340 on BkTauF"}, "[4]": {"substrate": "NC(=O)C1=CN([C@@H]2O[C@H](COP(=O)(O)OP(=O)(O)OC[C@H]3O[C@@H](n4cnc5c(N)ncnc54)[C@H](O)[C@@H]3O)[C@@H](O)[C@H]2O)C=CC1", "experiment": "spectrophotometric NADH assay, A340", "assay_type": "biochemical, Bifidobacterium catenulatum", "details": "sulfoacetaldehyde reduction; 5 mM sulfoacetaldehyde, 50 mM Tris/HCl pH 7.5, room temperature; pH 7.5", "source_text": "(§1) spectrophotometric NADH assay, A340 on BkTauF"}, "[5]": {"substrate": "O=CCS(=O)(=O)O", "experiment": "spectrophotometric NADH assay, A340", "assay_type": "biochemical, Bifidobacterium catenulatum", "details": "sulfoacetaldehyde introduced as bisulfite adduct; 0.5 mM NADH, 50 mM Tris/HCl pH 7.5, room temperature; pH 7.5", "source_text": "as §1"}, "[6]": {"substrate": "O=S(=O)(O)CCO", "experiment": "spectrophotometric NADH assay, A340", "assay_type": "biochemical, Bifidobacterium catenulatum", "details": "isethionate oxidation; 1 mM NAD+, 50 mM CAPSO pH 10.0, room temperature; pH 10.0", "source_text": "as §1"}, "[7]": {"substrate": "NC(=O)c1ccc[n+]([C@@H]2O[C@H](COP(=O)(O)OP(=O)(O)OC[C@H]3O[C@@H](n4cnc5c(N)ncnc54)[C@H](O)[C@@H]3O)[C@@H](O)[C@H]2O)c1", "experiment": "spectrophotometric NADH formation, A340", "assay_type": "biochemical, Bifidobacterium catenulatum", "details": "isethionate oxidation, 100 mM isethionate, 50 mM CAPSO pH 10.0, room temperature", "source_text": "spectrophotometric NADH formation, A340 on BkTauF"}}, "data": [{"molecule": "Bifidobacterium kashiwanohense TauF (sulfoacetaldehyde reductase) (enzyme)", "values": [{"measurement": "stoichiometry N", "setting": "[1]", "value": 2}]}, {"molecule": "NC(=O)c1ccc[n+]([C@@H]2O[C@H](COP(=O)(O)OP(=O)(O)OC[C@H]3O[C@@H](n4cnc5c(N)ncnc54)[C@H](O)[C@@H]3O)[C@@H](O)[C@H]2O)c1", "note": "[NAD^+]", "values": [{"measurement": "X-ray crystal structure, 3.0 Å", "setting": "BkTauF", "value": "The electron density is well defined for NAD^+"}]}, {"molecule": "B1", "values": [{"measurement": "Km", "setting": "[2]", "value": "0.77 ± 0.08", "unit": "mM"}, {"measurement": "kcat", "setting": "[2]", "value": "0.8 ± 0.02", "unit": "s⁻¹"}, {"measurement": "kcat/Km", "setting": "[2]", "value": 1030, "unit": "M⁻¹ s⁻¹"}, {"measurement": "Km", "setting": "[3]", "value": "0.73 ± 0.08", "unit": "mM"}, {"measurement": "kcat", "setting": "[3]", "value": "19 ± 1.13", "unit": "s⁻¹"}, {"measurement": "kcat/Km", "setting": "[3]", "value": 26200, "unit": "M⁻¹ s⁻¹"}, {"measurement": "Km", "setting": "[4]", "value": "0.06 ± 0.01", "unit": "mM"}, {"measurement": "kcat", "setting": "[4]", "value": "18.7 ± 0.52", "unit": "s⁻¹"}, {"measurement": "kcat/Km", "setting": "[4]", "value": 301000, "unit": "M⁻¹ s⁻¹"}, {"measurement": "Km", "setting": "[5]", "value": "0.50 ± 0.04", "unit": "mM"}, {"measurement": "kcat", "setting": "[5]", "value": "22.8 ± 0.68", "unit": "s⁻¹"}, {"measurement": "kcat/Km", "setting": "[5]", "value": 46100, "unit": "M⁻¹ s⁻¹"}, {"measurement": "Km", "setting": "[6]", "value": "4.44 ± 0.59", "unit": "mM"}, {"measurement": "kcat", "setting": "[6]", "value": "0.97 ± 0.03", "unit": "s⁻¹"}, {"measurement": "kcat/Km", "setting": "[6]", "value": 218, "unit": "M⁻¹ s⁻¹"}, {"measurement": "Km", "setting": "[7]", "value": "0.08 ± 0.00", "unit": "mM"}, {"measurement": "kcat", "setting": "[7]", "value": "1.3 ± 0.02", "unit": "s⁻¹"}, {"measurement": "kcat/Km", "setting": "[7]", "value": 15800, "unit": "M⁻¹ s⁻¹"}]}]}
